Measured values as given in the supplement of paper PMC7877785.
± gives the uncertainty stated by the source.

Assay: self-splicing fitness, log relative to wild type (ln ratio); higher = more splicing; Tetrahymena group I intron in knt gene, E. coli kanamycin selection, DiMSum; sequences stand for … in CUCUCU…GGAGGGAAAAGUUAUCAGGCAUGCACCUGGUAGCUAGUCUUUAAACCAAUAGAUUGCAUCGGUUUAAAAGGCAAGACCGUCAAAUUGCGGGAAAGGGGUCAACAGCCGUUCAGUACCAAGUCUCAGGGGAAACUUUGAGAUGGCCUUGCAAAGGGUAUGGUAAUAAGCUGACGGACAUGGUCCUAACCACGCAGCCAAGUCCUAAGUCAACAGAUCUUCUGUUGAUAUGGAUGCAGUUCACAGACUAAAUGUCGGUCGGGGAAGAUGUAUUCUUCUCAUAAGAUAUAGUCGGACCUCUCCUUAAUGGGAGCUAGCGGAUGAAGUGAUGCAACACUGGAGCCGCUGGGAACUAAUUUGUAUGCGAAAGUAUAUUGAUUAGUUUUGGAGUACUCGUGGUCG
Method in brief: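 A randomised library covering all eight P1ex-region intron nucleotides was built with the intron in the knt kanamycin-resistance gene on pET-22b(+) and held in E. coli BL21(DE3). Cells were grown overnight at 37°C or 30°C on LB agar, with or without 25 μg/mL kanamycin, plus 100 μg/mL carbenicillin, 50 μM IPTG and 0.2% rhamnose, and pooled colonies were amplicon-sequenced on an Illumina HiSeq 2500. DiMSum fitness is the error-weighted combination of wild-type-normalised replicate fold changes, kanamycin versus none.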

Sequence	self-splicing fitness (ln) (30 °C)	self-splicing fitness (ln) (37 °C)
UUAAAGCAAUAUUACGUACA	0.237 ± 0.088	0.0455 ± 0.12
UUAAAGCAAUAUUACGUACC	-1.73 ± 0.12	-0.333 ± 0.16
UUAAAGCAAUAUUACGUAGC	-4.43 ± 0.3	-2.96 ± 0.48
UUAAAGCAAUAUUACGUCAA	-0.222 ± 0.082	-0.107 ± 0.095
UUAAAGCAAUAUUACGUCCA	-0.0955 ± 0.086	0.343 ± 0.11
UUAAAGCAAUAUUACGUCGA	0.349 ± 0.082	0.262 ± 0.095
UUAAAGCAAUAUUACGUUCU	-1.08 ± 0.091	-0.401 ± 0.12
UUAAAGCAAUAUUACGUUGC	-3.24 ± 0.28	-2.66 ± 0.3
UUACAGCAAUAUUACGACAA	-0.25 ± 0.07	0.353 ± 0.083
UUACAGCAAUAUUACGACGU	-3.61 ± 0.31	-3.23 ± 0.4
UUACAGCAAUAUUACGAUCU	-1.88 ± 0.063	-1.02 ± 0.079
UUACAGCAAUAUUACGCAUC	-3.36 ± 0.15	-1.6 ± 0.13
UUACAGCAAUAUUACGCCUG	-0.557 ± 0.054	0.0548 ± 0.081
UUACAGCAAUAUUACGCGGC	-2.62 ± 0.14	-2.03 ± 0.18
UUACAGCAAUAUUACGCUGC	-2.9 ± 0.35	–
UUACAGCAAUAUUACGGAGU	-4.03 ± 0.29	-2.7 ± 0.22
UUACAGCAAUAUUACGGCCG	-0.529 ± 0.16	-0.389 ± 0.16
UUACAGCAAUAUUACGGCUG	-2.21 ± 0.17	-1.42 ± 0.2
UUACAGCAAUAUUACGUAAU	-3.27 ± 0.26	-2.32 ± 0.19
UUACAGCAAUAUUACGUACC	-1.19 ± 0.21	-0.649 ± 0.33
UUACAGCAAUAUUACGUGCC	-2.86 ± 0.15	-0.031 ± 0.13
UUAGAGCAAUAUUACGAAUG	-2.2 ± 0.14	-2.55 ± 0.26
UUAGAGCAAUAUUACGACGG	0.111 ± 0.12	-7.81e-05 ± 0.19
UUAGAGCAAUAUUACGAUGC	-2.04 ± 0.21	-2.57 ± 0.41
UUAGAGCAAUAUUACGCAGA	1.56 ± 0.32	–

Sequence	self-splicing fitness (ln) (30 °C)	self-splicing fitness (ln) (37 °C)
UUAGAGCAAUAUUACGCAGG	-2.7 ± 0.2	-0.784 ± 0.16
UUAGAGCAAUAUUACGCGUA	-1.59 ± 0.11	-0.559 ± 0.13
UUAGAGCAAUAUUACGCUAG	-0.574 ± 0.12	0.349 ± 0.15
UUAGAGCAAUAUUACGCUAU	-2.27 ± 0.23	-1.75 ± 0.26
UUAGAGCAAUAUUACGCUCA	-1.75 ± 0.18	-0.916 ± 0.26
UUAGAGCAAUAUUACGGAGG	-2.3 ± 0.13	-1.84 ± 0.18
UUAGAGCAAUAUUACGGCCA	-1.02 ± 0.34	0.756 ± 0.35
UUAGAGCAAUAUUACGGCCU	-4.22 ± 0.39	–
UUAGAGCAAUAUUACGGCUG	-0.433 ± 0.12	0.354 ± 0.17
UUAGAGCAAUAUUACGGGAG	-2.32 ± 0.15	-1.32 ± 0.18
UUAGAGCAAUAUUACGGGGA	-2.48 ± 0.21	-1 ± 0.2
UUAGAGCAAUAUUACGGGUA	-3.06 ± 0.22	-1.62 ± 0.19
UUAGAGCAAUAUUACGGUUC	-2.42 ± 0.4	–
UUAGAGCAAUAUUACGUAUG	-1.6 ± 0.085	-1.31 ± 0.12
UUAGAGCAAUAUUACGUCAC	–	-2.76 ± 0.48
UUAGAGCAAUAUUACGUCAU	-3.46 ± 0.31	-2.25 ± 0.33
UUAGAGCAAUAUUACGUCGA	-1.18 ± 0.12	0.172 ± 0.14
UUAGAGCAAUAUUACGUGAA	-2.16 ± 0.12	-0.588 ± 0.13
UUAGAGCAAUAUUACGUGCC	–	-1.58 ± 0.33
UUAUAGCAAUAUUACGAACU	-2.51 ± 0.18	-0.944 ± 0.18
UUAUAGCAAUAUUACGAAGC	-2.27 ± 0.42	–
UUAUAGCAAUAUUACGACCU	-3.38 ± 0.29	-0.509 ± 0.18
UUAUAGCAAUAUUACGACGA	-0.378 ± 0.098	0.212 ± 0.1
UUAUAGCAAUAUUACGACUU	-1.85 ± 0.28	-0.00223 ± 0.29
UUAUAGCAAUAUUACGAUUC	-2.51 ± 0.27	-1.17 ± 0.31

Sequence	self-splicing fitness (ln) (30 °C)	self-splicing fitness (ln) (37 °C)
UUAUAGCAAUAUUACGCAAC	-1.99 ± 0.34	-1.6 ± 0.2
UUAUAGCAAUAUUACGCAUA	-2.43 ± 0.29	-0.953 ± 0.18
UUAUAGCAAUAUUACGCGGG	-1.86 ± 0.17	-1.92 ± 0.3
UUAUAGCAAUAUUACGCUAU	-3.51 ± 0.44	-4.04 ± 0.46
UUAUAGCAAUAUUACGCUGG	-1.35 ± 0.14	-0.828 ± 0.12
UUAUAGCAAUAUUACGCUUC	-3.49 ± 0.32	-3.42 ± 0.43
UUAUAGCAAUAUUACGGAGG	-1.68 ± 0.31	-2.37 ± 0.32
UUAUAGCAAUAUUACGGAUA	-2.21 ± 0.32	-0.955 ± 0.19
UUAUAGCAAUAUUACGGGAA	-1.59 ± 0.29	-1.26 ± 0.28
UUAUAGCAAUAUUACGGGCG	-1.4 ± 0.15	-1 ± 0.2
UUAUAGCAAUAUUACGGUCA	-0.871 ± 0.13	-0.305 ± 0.17
UUAUAGCAAUAUUACGGUGG	-0.966 ± 0.11	-0.924 ± 0.12
UUAUAGCAAUAUUACGUAAG	-1.38 ± 0.08	-0.386 ± 0.11
UUAUAGCAAUAUUACGUAUA	-2.29 ± 0.15	-1.42 ± 0.13
UUAUAGCAAUAUUACGUAUG	-1.03 ± 0.12	-0.187 ± 0.15
UUAUAGCAAUAUUACGUGAG	-1.2 ± 0.087	-0.672 ± 0.12
UUAUAGCAAUAUUACGUGGC	-3.14 ± 0.37	-2.45 ± 0.39
UUCAAGCAAUAUUACGAACA	-2.07 ± 0.2	-0.752 ± 0.13
UUCAAGCAAUAUUACGACUC	-1.98 ± 0.24	-0.791 ± 0.22
UUCAAGCAAUAUUACGAGCG	-1.3 ± 0.087	-0.359 ± 0.099
UUCAAGCAAUAUUACGAGGG	-3.56 ± 0.23	-1.91 ± 0.17
UUCAAGCAAUAUUACGAUAC	-2.1 ± 0.17	-2.58 ± 0.48
UUCAAGCAAUAUUACGAUCC	-2.66 ± 0.27	-1.55 ± 0.29
UUCAAGCAAUAUUACGAUCU	-1.59 ± 0.092	-0.996 ± 0.089
UUCAAGCAAUAUUACGAUGU	-2.21 ± 0.13	-1.31 ± 0.16

Sequence	self-splicing fitness (ln) (30 °C)	self-splicing fitness (ln) (37 °C)
UUCAAGCAAUAUUACGCAUG	-2.8 ± 0.13	-1.7 ± 0.16
UUCAAGCAAUAUUACGCUAU	-2.4 ± 0.15	-1.63 ± 0.16
UUCAAGCAAUAUUACGCUCU	-1.37 ± 0.17	0.387 ± 0.21
UUCAAGCAAUAUUACGGACC	-2.45 ± 0.25	-2.97 ± 0.21
UUCAAGCAAUAUUACGGUAG	-0.693 ± 0.096	-0.128 ± 0.13
UUCAAGCAAUAUUACGGUCC	-1.46 ± 0.25	-2.3 ± 0.42
UUCAAGCAAUAUUACGUACA	-0.901 ± 0.11	-0.478 ± 0.13
UUCAAGCAAUAUUACGUAUU	-3.82 ± 0.17	-2.66 ± 0.16
UUCAAGCAAUAUUACGUCUU	–	-3.54 ± 0.33
UUCAAGCAAUAUUACGUGCC	-0.891 ± 0.15	-0.528 ± 0.17
UUCAAGCAAUAUUACGUUCC	–	-1.79 ± 0.34
UUCAAGCAAUAUUACGUUGG	-2.28 ± 0.17	-1.66 ± 0.24
UUCAAGCAAUAUUACGUUUC	-3.02 ± 0.13	-2.25 ± 0.18
UUCCAGCAAUAUUACGAACC	-2.74 ± 0.42	0.108 ± 0.43
UUCCAGCAAUAUUACGAGCA	-1.08 ± 0.098	-0.767 ± 0.13
UUCCAGCAAUAUUACGAUGA	-0.211 ± 0.067	0.0453 ± 0.072
UUCCAGCAAUAUUACGAUUG	-2.03 ± 0.12	-1.47 ± 0.16
UUCCAGCAAUAUUACGCCCU	–	-2.93 ± 0.49
UUCCAGCAAUAUUACGCGAG	-0.566 ± 0.082	-0.29 ± 0.082
UUCCAGCAAUAUUACGCUCA	-0.327 ± 0.068	0.143 ± 0.089
UUCCAGCAAUAUUACGGAAU	-3.81 ± 0.26	-2.77 ± 0.28
UUCCAGCAAUAUUACGGGCG	-0.245 ± 0.081	0.254 ± 0.097
UUCCAGCAAUAUUACGGUAC	-4.17 ± 0.24	-2.6 ± 0.23
